US20240400715A1 (VIBRANT PHARMA, published 2024)
Changes are numbered by the printed parent chain. Several values for one entry are separate records, joined by “and”; a condition that tells them apart may be missing. Identical values can stand only once.

B1: 311 (TA6), configuration of FIG. 1X (bispecific antibody, IgG4)
heavy: EVQLVQSGAEVKKPGASVKVSCKASGYTFTNYYIHWVRQAPGQGLEWIGWIYPGDGNTKYNEKFKGRATLTADTSTSTAYLELSSLRSEDTAVYYCARDSYSNYYFDYWGQGTLVTVSSASTKGPSVFPLAPCSRSTSESTAALGCLVKDYFPEPVTVSWNSGALTSGVHTFPAVLQSSGLYSLSSVVTVPSSSLGTKTYTCNVDHKPSNTKVDKRVESKYGPPCPPCPAPEAAGGPSVFLFPPKPKDTLMISRTPEVTCVVVDVSQEDPEVQFNWYVDGVEVHNAKTKPREEQFNSTYRVVSVLTVLHQDWLNGKEYKCKVSNKGLPSSIEKTISKAKGQPREPQVYTLPPCQEEMTKNQVSLWCLVKGFYPSDIAVEWESNGQPENNYKTTPPVLDSDGSFFLYSRLTVDKSRWQEGNVFSCSVMHEALHNHYTQKSLSLSLGGGGSGGGGSEVQLVESGGGFVQAGESLTLSCTSSTLTFTPYRMAWYRQAPGKQRDLVADISSGDGRTTNYADFAKGRFTISRDNIKNTVFLRMTNLKPEDTAVYYCNTFVSFVGIARSWGQGTQVTVSS
chain: ESKYGPPCPPCPAPEAAGGPSVFLFPPKPKDTLMISRTPEVTCVVVDVSQEDPEVQFNWYVDGVEVHNAKTKPREEQFNSTYRVVSVLTVLHQDWLNGKEYKCKVSNKGLPSSIEKTISKAKGQPREPQVCTLPPSQEEMTKNQVSLSCAVKGFYPSDIAVEWESNGQPENNYKTTPPVLDSDGSFFLVSRLTVDKSRWQEGNVFSCSVMHEALHNRFTQKSLSLSL
light: DIVMTQSPDSLAVSLGERATINCKSSQSLLNSRTRKNYLAWYQQKPGQPPKLLIYWASTRESGVPDRFSGSGSGTDFTLTISSLQAEDVAVYYCTQSFILRTFGQGTKVEIK
notes: chains put together from parts; IgG4, kappa; not shown: kappa light chain constant domain (CL)
B2: CEA-Fab-Knob-+Hole (201) (bispecific antibody, human IgG4 S228P, kappa, F234A L235A)
heavy: EVKLLESGGGLVQPKGSLKLSCAASGFTFNTYAMNWVRQAPGKGLEWVARIRSKYNNYATYYADSVKDRFTISRDDSQSILYLQMNNLKTEDTAMYYCVRHGNFGNSYVSWFAYWGQGTLVTVSSASTKGPSVFPLAPCSRSTSESTAALGCLVKDYFPEPVTVSWNSGALTSGVHTFPAVLQSSGLYSLSSVVTVPSSSLGTKTYTCNVDHKPSNTKVDKRVESKYGPPCPPCPAPEAAGGPSVFLFPPKPKDTLMISRTPEVTCVVVDVSQEDPEVQFNWYVDGVEVHNAKTKPREEQFNSTYRVVSVLTVLHQDWLNGKEYKCKVSNKGLPSSIEKTISKAKGQPREPQVYTLPPCQEEMTKNQVSLWCLVKGFYPSDIAVEWESNGQPENNYKTTPPVLDSDGSFFLYSRLTVDKSRWQEGNVFSCSVMHEALHNHYTQKSLSLSL
chain: B1 chain
light: QAVVTQESALTTSPGETVTLTCRSSTGAVTTSNYANWVQEKPDHLFTGLIGGTNKRAPGVPARFSGSLIGDKAALTITGAQTEDEAIYFCALWYSNLWVFGGGTKVEIKRTVAAPSVFIFPPSDEQLKSGTASVVCLLNNFYPREAKVQWKVDNALQSGNSQESVTEQDSKDSTYSLSSTLTLSKADYEKHKVYACEVTHQGLSSPVTKSFNRGECGGGGSGGGGSEVQLVESGGGFVQAGESLTLSCTSSTLTFTPYRMAWYRQAPGKQRDLVADISSGDGRTTNYADFAKGRFTISRDNIKNTVFLRMTNLKPEDTAVYYCNTFVSFVGIARSWGQGTQVTVSS
notes: VHH linked to the CL of the Fab; human IgG4 knob-into-hole Fc
B3: 312 (TA7), configuration of FIG. 1X (bispecific antibody, IgG4)
heavy: B1 heavy with Y27F, N31S, G54E, D55N, G56D, G66D, A68V, L70I, S100G, N103R
chain: B1 chain
light: B1 light with P49S, A57T, E61K, T95K
notes: as for B1
B4: Fab-Knob-CEA+Hole (102) (bispecific antibody, human IgG4 S228P, kappa, F234A L235A)
heavy: EVKLLESGGGLVQPKGSLKLSCAASGFTFNTYAMNWVRQAPGKGLEWVARIRSKYNNYATYYADSVKDRFTISRDDSQSILYLQMNNLKTEDTAMYYCVRHGNFGNSYVSWFAYWGQGTLVTVSSASTKGPSVFPLAPCSRSTSESTAALGCLVKDYFPEPVTVSWNSGALTSGVHTFPAVLQSSGLYSLSSVVTVPSSSLGTKTYTCNVDHKPSNTKVDKRVESKYGPPCPPCPAPEAAGGPSVFLFPPKPKDTLMISRTPEVTCVVVDVSQEDPEVQFNWYVDGVEVHNAKTKPREEQFNSTYRVVSVLTVLHQDWLNGKEYKCKVSNKGLPSSIEKTISKAKGQPREPQVYTLPPCQEEMTKNQVSLWCLVKGFYPSDIAVEWESNGQPENNYKTTPPVLDSDGSFFLYSRLTVDKSRWQEGNVFSCSVMHEALHNHYTQKSLSLSLGGGGSGGGGSEVQLVESGGGFVQAGESLTLSCTSSTLTFTPYRMAWYRQAPGKQRDLVADISSGDGRTTNYADFAKGRFTISRDNIKNTVFLRMTNLKPEDTAVYYCNTFVSFVGIARSWGQGTQVTVSS
chain: B1 chain
light: QAVVTQESALTTSPGETVTLTCRSSTGAVTTSNYANWVQEKPDHLFTGLIGGTNKRAPGVPARFSGSLIGDKAALTITGAQTEDEAIYFCALWYSNLWVFGGGTKVEIKRTVAAPSVFIFPPSDEQLKSGTASVVCLLNNFYPREAKVQWKVDNALQSGNSQESVTEQDSKDSTYSLSSTLTLSKADYEKHKVYACEVTHQGLSSPVTKSFNRGEC
notes: Anti-CD3 TA1 Fab + anti-CEA VHH C17 on human IgG4 knob-into-hole Fc
B5: Knob-CEA+Hole-Fab (112) (bispecific antibody, human IgG4 S228P, kappa, F234A L235A)
chain: ESKYGPPCPPCPAPEAAGGPSVFLFPPKPKDTLMISRTPEVTCVVVDVSQEDPEVQFNWYVDGVEVHNAKTKPREEQFNSTYRVVSVLTVLHQDWLNGKEYKCKVSNKGLPSSIEKTISKAKGQPREPQVYTLPPCQEEMTKNQVSLWCLVKGFYPSDIAVEWESNGQPENNYKTTPPVLDSDGSFFLYSRLTVDKSRWQEGNVFSCSVMHEALHNHYTQKSLSLSLGGGGSGGGGSEVQLVESGGGFVQAGESLTLSCTSSTLTFTPYRMAWYRQAPGKQRDLVADISSGDGRTTNYADFAKGRFTISRDNIKNTVFLRMTNLKPEDTAVYYCNTFVSFVGIARSWGQGTQVTVSS
heavy: ESKYGPPCPPCPAPEAAGGPSVFLFPPKPKDTLMISRTPEVTCVVVDVSQEDPEVQFNWYVDGVEVHNAKTKPREEQFNSTYRVVSVLTVLHQDWLNGKEYKCKVSNKGLPSSIEKTISKAKGQPREPQVCTLPPSQEEMTKNQVSLSCAVKGFYPSDIAVEWESNGQPENNYKTTPPVLDSDGSFFLVSRLTVDKSRWQEGNVFSCSVMHEALHNRFTQKSLSLSLGGGGSGGGGSEVKLLESGGGLVQPKGSLKLSCAASGFTFNTYAMNWVRQAPGKGLEWVARIRSKYNNYATYYADSVKDRFTISRDDSQSILYLQMNNLKTEDTAMYYCVRHGNFGNSYVSWFAYWGQGTLVTVSSASTKGPSVFPLAPCSRSTSESTAALGCLVKDYFPEPVTVSWNSGALTSGVHTFPAVLQSSGLYSLSSVVTVPSSSLGTKTYTCNVDHKPSNTKVDKRV
light: B4 light
notes: as for B4
B6: Fab-Knob+CEA-Hole (101) (bispecific antibody, human IgG4 S228P, kappa, F234A L235A)
heavy: B2 heavy
chain: EVQLVESGGGFVQAGESLTLSCTSSTLTFTPYRMAWYRQAPGKQRDLVADISSGDGRTTNYADFAKGRFTISRDNIKNTVFLRMTNLKPEDTAVYYCNTFVSFVGIARSWGQGTQVTVSSESKYGPPCPPCPAPEAAGGPSVFLFPPKPKDTLMISRTPEVTCVVVDVSQEDPEVQFNWYVDGVEVHNAKTKPREEQFNSTYRVVSVLTVLHQDWLNGKEYKCKVSNKGLPSSIEKTISKAKGQPREPQVCTLPPSQEEMTKNQVSLSCAVKGFYPSDIAVEWESNGQPENNYKTTPPVLDSDGSFFLVSRLTVDKSRWQEGNVFSCSVMHEALHNRFTQKSLSLSL
light: B4 light
notes: Anti-CD3 TA1 Fab + anti-CEA VHH C17 on human IgG4 knob-into-hole Fc, kappa light chain

Molecular target: T1, human CD3 on Jurkat cells (human, UniProt P07766 23-207; P04234 22-171; P09693 23-182)
T1 construct: whole, on cells; CD3 complex as on Jurkat (Clone E6-1) cells; also called CD3 expressing cells (Jurkat)
Experiment: FACS, Jurkat cells;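 further: flow cytometric binding of bispecific antibodies to Jurkat T cells, threefold serial dilutions incubated half an hour in the cold, EC50 taken from the fitted binding curve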

EC50 | Binder
1.04 µg/mL and 8.02 nM | B1
0.312 µg/mL and 2.4 nM | B2
0.146 µg/mL and 1.12 nM | B3
0.592 µg/mL and 4.55 nM | B4
5.32 µg/mL and 40.9 nM | B5
6.28 µg/mL and 48.3 nM | B6

Molecular target: T2, human CD3ε/δ (ACRO systems, CDD-H52W1) (human, UniProt P07766 23-126; P04234 22-105)
T2 construct: Bought protein; also called human CD3ϵ/CD3δ; human CD3 epsilon/delta antigen
Experiment: BLI, antibody captured, antigen in solution;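 further: bispecific antibodies captured on AHIC biosensors to a 1.5 nm loading signal, in PBST with 0.02% detergent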
Method: The bispecific antibodies were diluted to 5 ag/ml, and 1.5 nm protein was coupled to the surface of the AHIC sensor chip through 0.02% PBST.

Kd [nM] | koff [s⁻¹] | kon [M⁻¹ s⁻¹] | Binder
3.66 | 0.00101 | 303000 | B1
2.59 | 0.00046 | 178000 | B2
3.24 | 0.000565 | 157000 | B3
0.984 | 0.000327 | 333000 | B4
2.44 | 0.000614 | 252000 | B5
0.979 | 0.0004 | 409000 | B6
